Reference: patent publication US20200308295A1 (published 2020)

Target: T1, recombinant human C3d (human, UniProt P01024 996-1303, limits assumed)
T1 construct: domain: C3d; Also used for statements that speak only of C3d or human C3d; also called wild-type C3d
Experiment: radiolabelled antibody; method and antigen not stated

T1 sequence (P01024 996-1303 limits assumed): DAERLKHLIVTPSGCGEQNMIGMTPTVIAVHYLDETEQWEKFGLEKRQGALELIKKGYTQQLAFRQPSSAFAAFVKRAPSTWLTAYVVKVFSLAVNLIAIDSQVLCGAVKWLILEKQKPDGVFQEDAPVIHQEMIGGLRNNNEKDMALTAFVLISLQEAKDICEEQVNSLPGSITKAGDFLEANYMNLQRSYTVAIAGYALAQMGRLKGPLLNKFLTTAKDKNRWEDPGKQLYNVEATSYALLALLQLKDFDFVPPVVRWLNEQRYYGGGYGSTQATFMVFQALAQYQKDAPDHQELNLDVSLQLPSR

B1: mouse monoclonal antibody 3d29 (antibody, mouse IgG2a, V domains shown)
VH: EVQLQQSGPVLVKPGASVKMSCKASGYTFTDYYMNWVKQSHGKSLEWIGVINPYNGGTSYNQKFKGKATLTVDKSSRTAYMELNSLTSEDSAVYYCSRGGPYWGQGTTLTVSS
VL: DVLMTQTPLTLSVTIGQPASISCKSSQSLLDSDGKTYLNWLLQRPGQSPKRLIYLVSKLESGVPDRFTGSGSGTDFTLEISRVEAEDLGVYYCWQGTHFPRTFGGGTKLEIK
notes: Group I clone; Also used FITC-labelled, biotinylated, radiolabelled and conjugated to SPIO nanoparticles; told under assay; also called clone 29; C3d29
B1 showed a Kd of 0.43 nM.
